# Laboratory results: the supplement of paper PMC9112550, “Optimization of the antimicrobial peptide Bac7 by deep mutational scanning” (BMC Biology, 2022)
# Test system: Escherichia coli TOP10
# Test: shrunken log2 fold change of peptide-encoding DNA abundance (4.5 h post-induction vs induction); higher = less antimicrobial activity (less host growth inhibition)
# Details: time post-induction: 4.5 h; library: site-saturation at positions 5, 18, 19, 20
# 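Further: peptides expressed intracellularly from a pBAD plasmid library in pooled LB shake-flask culture, induced with 0.3% L-arabinose, DNA abundance read by NGS, three biological replicates, DESeq2 with apeglm shrinkage.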
row,Sequence,shrunken log2 fold change
1,RRIRSRPPRLPRPRPRPQHVPRP,-0.17
2,RRIRMRPPRLPRPRPRPSNKPRP,0.0232
3,RRIRLRPPRLPRPRPRPAVKPRP,-0.131
4,RRIRMRPPRLPRPRPRPRNFPRP,1.12
5,RRIRYRPPRLPRPRPRPLGLPRP,-0.126
6,RRIRFRPPRLPRPRPRPRSTPRP,0.421
7,RRIRGRPPRLPRPRPRPNYSPRP,-0.371
8,RRIRCRPPRLPRPRPRPYTRPRP,-0.669
9,RRIRMRPPRLPRPRPRPCVEPRP,0.755
10,RRIRVRPPRLPRPRPRPDLHPRP,-0.0023
11,RRIRKRPPRLPRPRPRPVQRPRP,0.0869
12,RRIRHRPPRLPRPRPRPHYCPRP,-0.0453
13,RRIRHRPPRLPRPRPRPPCWPRP,0.142
14,RRIRIRPPRLPRPRPRPTRNPRP,-0.268
15,RRIRIRPPRLPRPRPRPDRPPRP,-0.0549
16,RRIRKRPPRLPRPRPRPRGPPRP,1.23
17,RRIRKRPPRLPRPRPRPMWLPRP,0.642
18,RRIRRRPPRLPRPRPRPYMLPRP,-0.685
19,RRIRKRPPRLPRPRPRPMQFPRP,0.105
20,RRIRLRPPRLPRPRPRPKWPPRP,0.279
21,RRIRKRPPRLPRPRPRPMSVPRP,-0.39
22,RRIRFRPPRLPRPRPRPAFGPRP,0.21

row,Sequence,shrunken log2 fold change
1,RRIRPRPPRLPRPRPRPPCEPRP,0.522
2,RRIRDRPPRLPRPRPRPCNSPRP,-0.0276
3,RRIRGRPPRLPRPRPRPHVIPRP,-0.191
4,RRIRVRPPRLPRPRPRPVAFPRP,-0.0455
5,RRIRDRPPRLPRPRPRPAWKPRP,0.0693
6,RRIRKRPPRLPRPRPRPEEKPRP,0.0431
7,RRIRTRPPRLPRPRPRPYMCPRP,-0.827
8,RRIRFRPPRLPRPRPRPIIDPRP,-1.61
9,RRIRCRPPRLPRPRPRPDFEPRP,-0.0276
10,RRIRMRPPRLPRPRPRPVLKPRP,0.072
11,RRIRIRPPRLPRPRPRPDVIPRP,-0.00836
12,RRIRYRPPRLPRPRPRPSGYPRP,-0.714
13,RRIRARPPRLPRPRPRPAWCPRP,1.28
14,RRIRNRPPRLPRPRPRPRVEPRP,0.345
15,RRIRWRPPRLPRPRPRPRAMPRP,0.363
16,RRIRNRPPRLPRPRPRPWHHPRP,-0.209
17,RRIRGRPPRLPRPRPRPTTPPRP,0.681
18,RRIRTRPPRLPRPRPRPKSHPRP,-0.365
19,RRIRPRPPRLPRPRPRPNDMPRP,-0.208
20,RRIRVRPPRLPRPRPRPWVRPRP,0.0573
21,RRIRIRPPRLPRPRPRPKPQPRP,0.0958
22,RRIRWRPPRLPRPRPRPNWTPRP,0.0351

row,Sequence,shrunken log2 fold change
1,RRIRMRPPRLPRPRPRPWDKPRP,-0.0134
2,RRIRVRPPRLPRPRPRPPGEPRP,0.511
3,RRIRHRPPRLPRPRPRPTIVPRP,-0.292
4,RRIRSRPPRLPRPRPRPTNSPRP,-0.24
5,RRIRMRPPRLPRPRPRPGFSPRP,0.331
6,RRIRHRPPRLPRPRPRPMTYPRP,-0.19
7,RRIRFRPPRLPRPRPRPFPMPRP,-0.0754
8,RRIRSRPPRLPRPRPRPCQEPRP,-0.0101
9,RRIRFRPPRLPRPRPRPPWRPRP,1.68
10,RRIRCRPPRLPRPRPRPNQGPRP,-0.203
11,RRIRKRPPRLPRPRPRPFVEPRP,0.0241
12,RRIRIRPPRLPRPRPRPCCGPRP,-0.252
13,RRIRCRPPRLPRPRPRPAGCPRP,0.262
14,RRIRNRPPRLPRPRPRPACRPRP,0.4
15,RRIRGRPPRLPRPRPRPMLMPRP,1.09
16,RRIRERPPRLPRPRPRPDARPRP,-0.0768
17,RRIRWRPPRLPRPRPRPHHWPRP,0.13
18,RRIRWRPPRLPRPRPRPFADPRP,0.737
19,RRIRKRPPRLPRPRPRPACCPRP,0.192
20,RRIRERPPRLPRPRPRPNNDPRP,-0.663
21,RRIRHRPPRLPRPRPRPHSGPRP,-0.487
22,RRIRERPPRLPRPRPRPPNPPRP,0.216

row,Sequence,shrunken log2 fold change
1,RRIRFRPPRLPRPRPRPWIVPRP,-0.242
2,RRIRWRPPRLPRPRPRPEWSPRP,0.0628
3,RRIRCRPPRLPRPRPRPVPTPRP,0.116
4,RRIRLRPPRLPRPRPRPPAFPRP,0.144
5,RRIRMRPPRLPRPRPRPYFKPRP,-0.647
6,RRIRRRPPRLPRPRPRPVWMPRP,0.561
7,RRIRFRPPRLPRPRPRPFEVPRP,-0.571
8,RRIRARPPRLPRPRPRPHEIPRP,-0.107
9,RRIRNRPPRLPRPRPRPDIWPRP,-0.394
10,RRIRWRPPRLPRPRPRPMIRPRP,-0.348
11,RRIRTRPPRLPRPRPRPLPEPRP,0.126
12,RRIRFRPPRLPRPRPRPLGQPRP,-0.187
13,RRIRGRPPRLPRPRPRPKQMPRP,1.03
14,RRIRNRPPRLPRPRPRPFEIPRP,-0.0195
15,RRIRHRPPRLPRPRPRPLFRPRP,0.0546
16,RRIRARPPRLPRPRPRPVNLPRP,0.0654
17,RRIRDRPPRLPRPRPRPWLMPRP,-0.1
18,RRIRFRPPRLPRPRPRPPHPPRP,0.615
19,RRIRRRPPRLPRPRPRPTTYPRP,-0.221
20,RRIRLRPPRLPRPRPRPDIQPRP,0.0103
21,RRIRHRPPRLPRPRPRPWHCPRP,0.162
22,RRIRMRPPRLPRPRPRPTKRPRP,0.901

row,Sequence,shrunken log2 fold change
1,RRIRQRPPRLPRPRPRPPRSPRP,0.601
2,RRIRTRPPRLPRPRPRPEYLPRP,-0.0156
3,RRIRDRPPRLPRPRPRPRWWPRP,0.0238
4,RRIRIRPPRLPRPRPRPVNIPRP,-0.17
5,RRIRRRPPRLPRPRPRPCIRPRP,-0.135
6,RRIRIRPPRLPRPRPRPSHQPRP,0.0866
7,RRIRYRPPRLPRPRPRPVVGPRP,-0.172
8,RRIRIRPPRLPRPRPRPTIFPRP,-0.398
9,RRIRWRPPRLPRPRPRPEINPRP,0.267
10,RRIRIRPPRLPRPRPRPPATPRP,0.177
11,RRIRPRPPRLPRPRPRPIPSPRP,0.00576
12,RRIRERPPRLPRPRPRPNLKPRP,-0.56
13,RRIRPRPPRLPRPRPRPESHPRP,-0.00995
14,RRIRHRPPRLPRPRPRPEQPPRP,-0.0288
15,RRIRVRPPRLPRPRPRPDQPPRP,0.166
16,RRIRARPPRLPRPRPRPHPRPRP,0.696
17,RRIRNRPPRLPRPRPRPVAHPRP,-0.0475
18,RRIRKRPPRLPRPRPRPEMCPRP,1.1
19,RRIRYRPPRLPRPRPRPNHTPRP,-0.259
20,RRIRMRPPRLPRPRPRPPLGPRP,1.08
21,RRIRPRPPRLPRPRPRPQMSPRP,0.0674
